Data on ten molecules can be found in patent US20220064331A1 (Genentech, published 2022).

Common to all, as to assay: FACS on transfected HEK293T cells
One assay concerns the target T1, mouse KLB (mouse, UniProt Q99N32 53-990).
T1 construct: expressed from KLB cDNA on HEK293T cells and read by FACS; also called msKLB
T1 sequence: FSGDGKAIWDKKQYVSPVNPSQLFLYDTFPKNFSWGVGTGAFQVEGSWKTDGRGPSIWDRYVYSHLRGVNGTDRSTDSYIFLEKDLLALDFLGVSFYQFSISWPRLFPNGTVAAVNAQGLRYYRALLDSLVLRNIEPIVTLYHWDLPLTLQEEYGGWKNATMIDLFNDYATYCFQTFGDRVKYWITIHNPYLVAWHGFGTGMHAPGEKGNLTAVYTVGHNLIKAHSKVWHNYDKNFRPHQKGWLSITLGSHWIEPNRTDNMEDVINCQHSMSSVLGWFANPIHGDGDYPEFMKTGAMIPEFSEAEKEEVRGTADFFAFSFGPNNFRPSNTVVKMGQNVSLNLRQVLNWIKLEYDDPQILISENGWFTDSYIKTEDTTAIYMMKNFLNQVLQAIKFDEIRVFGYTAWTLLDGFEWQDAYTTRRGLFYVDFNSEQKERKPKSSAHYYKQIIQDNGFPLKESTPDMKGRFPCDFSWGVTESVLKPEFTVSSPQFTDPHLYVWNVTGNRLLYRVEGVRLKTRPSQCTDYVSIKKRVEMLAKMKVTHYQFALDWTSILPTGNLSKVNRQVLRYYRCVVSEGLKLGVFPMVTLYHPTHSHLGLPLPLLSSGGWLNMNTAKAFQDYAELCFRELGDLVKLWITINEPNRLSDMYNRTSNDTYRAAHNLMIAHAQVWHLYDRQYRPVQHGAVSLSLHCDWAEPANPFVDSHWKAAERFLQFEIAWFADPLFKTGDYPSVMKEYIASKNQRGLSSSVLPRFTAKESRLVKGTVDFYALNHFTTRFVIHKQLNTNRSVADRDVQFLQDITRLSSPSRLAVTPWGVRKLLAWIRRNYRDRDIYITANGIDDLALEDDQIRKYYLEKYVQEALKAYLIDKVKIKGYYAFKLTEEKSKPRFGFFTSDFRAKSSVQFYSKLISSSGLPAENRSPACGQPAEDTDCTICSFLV
As for the experimental part:
(§1) Species cross reactivity of the disclosed anti-KLB antibodies were analyzed by FACS analysis using KLB cDNA from mouse, rat, rabbit, cynomolgus monkey and rhesus monkey cloned into pRK mammalian expression vectors transiently transfected into HEK293T cells. The KLB extracellular domain polypeptide sequences that were expressed are as follows: […]

For assay [1], the target named is T2, rhesus monkey KLB (+N-ter FLAG) (rhesus monkey, UniProt Q86Z14 53-992 (human entry)).
T2 construct: expressed from KLB cDNA on HEK293T cells and read by FACS
T2 chain: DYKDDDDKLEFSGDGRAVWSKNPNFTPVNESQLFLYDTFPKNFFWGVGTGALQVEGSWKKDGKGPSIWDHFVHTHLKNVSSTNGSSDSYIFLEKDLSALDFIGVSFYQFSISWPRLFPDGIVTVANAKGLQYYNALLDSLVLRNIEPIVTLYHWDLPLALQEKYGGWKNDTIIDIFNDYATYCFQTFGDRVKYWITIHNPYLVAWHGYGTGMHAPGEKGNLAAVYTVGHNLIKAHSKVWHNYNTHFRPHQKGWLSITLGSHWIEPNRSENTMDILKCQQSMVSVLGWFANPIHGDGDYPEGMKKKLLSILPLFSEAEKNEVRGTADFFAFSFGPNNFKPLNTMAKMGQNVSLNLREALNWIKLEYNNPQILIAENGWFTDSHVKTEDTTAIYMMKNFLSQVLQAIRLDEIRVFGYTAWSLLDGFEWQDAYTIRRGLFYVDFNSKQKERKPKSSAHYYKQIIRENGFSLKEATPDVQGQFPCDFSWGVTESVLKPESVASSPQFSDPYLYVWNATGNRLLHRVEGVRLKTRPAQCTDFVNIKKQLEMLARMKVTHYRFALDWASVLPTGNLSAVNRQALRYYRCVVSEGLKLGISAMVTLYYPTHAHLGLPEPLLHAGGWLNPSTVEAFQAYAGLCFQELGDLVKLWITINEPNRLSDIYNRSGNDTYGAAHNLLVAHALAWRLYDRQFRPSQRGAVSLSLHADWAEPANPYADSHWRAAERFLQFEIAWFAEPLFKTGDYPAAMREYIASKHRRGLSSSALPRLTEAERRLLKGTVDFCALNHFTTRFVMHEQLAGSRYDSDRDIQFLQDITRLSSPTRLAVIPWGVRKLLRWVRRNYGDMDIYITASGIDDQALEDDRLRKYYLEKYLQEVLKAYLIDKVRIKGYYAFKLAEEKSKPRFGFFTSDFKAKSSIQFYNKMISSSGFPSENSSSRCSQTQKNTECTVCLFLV
As for the experimental part: as §1

The next assay concerns the target T3, rabbit KLB (+N-ter FLAG) (rabbit).
T3 construct: expressed from KLB cDNA on HEK293T cells and read by FACS
T3 chain: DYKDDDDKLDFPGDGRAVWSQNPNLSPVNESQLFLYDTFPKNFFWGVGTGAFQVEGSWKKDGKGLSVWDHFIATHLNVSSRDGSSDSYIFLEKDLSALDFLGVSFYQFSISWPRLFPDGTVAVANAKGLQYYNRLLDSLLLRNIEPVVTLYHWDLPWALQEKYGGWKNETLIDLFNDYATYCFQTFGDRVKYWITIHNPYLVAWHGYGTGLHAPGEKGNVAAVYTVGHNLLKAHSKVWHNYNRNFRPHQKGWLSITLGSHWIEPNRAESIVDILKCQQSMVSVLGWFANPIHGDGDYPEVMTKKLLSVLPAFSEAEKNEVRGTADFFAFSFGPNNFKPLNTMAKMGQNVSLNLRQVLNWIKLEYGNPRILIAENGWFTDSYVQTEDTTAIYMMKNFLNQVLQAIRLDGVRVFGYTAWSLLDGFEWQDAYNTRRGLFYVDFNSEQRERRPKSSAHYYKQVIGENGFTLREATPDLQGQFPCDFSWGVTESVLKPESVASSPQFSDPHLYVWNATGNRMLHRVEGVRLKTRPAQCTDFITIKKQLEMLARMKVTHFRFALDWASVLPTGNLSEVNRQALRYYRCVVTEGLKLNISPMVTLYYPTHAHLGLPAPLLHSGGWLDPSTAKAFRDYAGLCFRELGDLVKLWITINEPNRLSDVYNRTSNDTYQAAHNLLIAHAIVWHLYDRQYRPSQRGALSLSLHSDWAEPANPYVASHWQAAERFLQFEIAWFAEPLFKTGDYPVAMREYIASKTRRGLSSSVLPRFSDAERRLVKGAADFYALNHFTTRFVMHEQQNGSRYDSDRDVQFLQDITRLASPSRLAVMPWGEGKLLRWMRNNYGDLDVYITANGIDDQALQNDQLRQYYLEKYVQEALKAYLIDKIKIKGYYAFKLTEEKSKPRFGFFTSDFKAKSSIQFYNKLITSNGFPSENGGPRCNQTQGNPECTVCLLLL
How it is done:
as §1

B1: 8C5 (antibody, V domains shown)
VH: QVQLKQSGPGLVQPSQSLSVACTVSDFSLTTYGVHWVRQSPGKGLEWLGVIWSGGSTDYNAAFISRLTISKDNSKSQVFFKMNSLQTTDTAIYYCARDYGSTYVDAIDYWGQGTSVTVSS
VL: DIVLTQSPTSLAVSLGQRATISCRASESVESYGNRYMTWYQQKPGQPPKLLIYRAANLQSGIPARFSGSGSRTDFTLTIDPVEADDVATYYCQQSNEDPWTFGGGTKVEIK
notes: murine hybridoma-derived anti-KLB antibody; also called KLBmAb1
On to B1, for which the binding result with mouse KLB is reported as “binds”; in assay [1], “binds”; in the assay with rabbit KLB (+N-ter FLAG), “no binding”.

B2: 8E1 (antibody, V domains shown)
VH: EVQLQQSGAELVKPGASVKLSCTAADFNIKDTYMHWVKQRPEQGLEWIGRIDPSNGNAKYDPKFQGKASITADSSSNTAYLHLSSLTSEDTAVYYCASRALGNGYALGYWGQGTSVTVSS
VL: DIQMTQSSSYLSVSLGGSVTITCKASDHINNWLAWYQQKPGNAPRLLIYGTTNLETGVPSRFSGSGSGRDYILSITSLQSEDVASYYCQQYWNTPFTFGSGTKLEIK
notes: murine hybridoma-derived anti-KLB antibody
Turning to B2, the binding result is listed as “no binding” with mouse KLB, “binds” in assay [1] and “binds” in the assay with rabbit KLB (+N-ter FLAG).

B3: 25F7 (antibody, V domains shown)
VH: EVQLQQSGAELLKPGASVRLSCTASGFNIQDTFTHWVRQRPEQGLEWIGRIDPSNGNTKYDPKFQGKAKILADTSSNTAYLQLIGLTSEDTAVYYCASRALGNGYAMDYWGQGTSVTVSS
VL: DIQMTQSSSYLSVSLGGRVTITCKASDHINNWLAWYQQKPGNAPRLLISGASNLETGIPSRFSGSGSGKDYTLTITSLQTEDVATYYCQQYWNTPFTFGSGTKLEIK
notes: as for B2
Regarding B3, the figures for the binding result (in the assay with mouse KLB; in assay [1]) were “no binding” and “binds”, respectively.

B4: 24A1 (antibody, V domains shown)
VH: QVQLKQSGAELVRPGTSVTLSCKASGYTFTDYEMHWMKQTPVYGLEWIGAIWPENADSVYNQKFKGKVTLTADKSSSTAYMDLRSLTSEDSAVYYCTREGGNYWGQGTTLTVSS
VL: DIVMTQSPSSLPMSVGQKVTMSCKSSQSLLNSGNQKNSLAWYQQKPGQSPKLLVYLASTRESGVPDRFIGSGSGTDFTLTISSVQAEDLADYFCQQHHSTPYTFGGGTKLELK
notes: as for B2
Consider B4, for which the binding result (in the assay with mouse KLB; in assay [1]; in the assay with rabbit KLB (+N-ter FLAG)) was “binds” each time.

B5: 12B8 (antibody, V domains shown)
VH: QIQLVQSGPELKKPGETAKISCKASGYAFSNYGMNWVKQAPGKDLKWMGWIDTDTGEATYTDDFKGRFVFSLETSASTAYLQINNLKNEDMATYFCAREEYGLFGFPYWGHGTLVTVSA
VL: DIQMTQSSSSFSVSLGDRVTITCKASEDIYNRLAWYQQKPGSAPRLLISAATSLETGVPSRFSGSGSGKDYTLSITSLQTEDVATYYCQQYWSNPLTFGAGTKLEIK
notes: as for B2
With B5, the results for the binding result (in the assay with mouse KLB; in assay [1]; with rabbit KLB (+N-ter FLAG)) were “no binding”, “binds” and “binds”, respectively.

B6: 14C6 (antibody, V domains shown)
VH: QIQLQQSGAELMKPGASVRMSCKASGYTFSSYWIEWVKQRSGHGLEWIGEIFPGGGSTIYNENFRDKATFTADTSSNTAYMQLSSLTSEDSAVYFCARRGYYDAAWFDYWGQGTLVTVSA
VL: QIVLTQSPAIMSASPGERVTLTCSASSSLSSSYLYWYQQKPGSSPKLWIYGASNLASGVPGRFSGSGSGTSYSLTISSMEAEDAASYFCHQWSSYPLTFGSGTKLELK
notes: as for B2
Turning to B6, the binding result (in the assay with mouse KLB; in assay [1]; with rabbit KLB (+N-ter FLAG)) was “binds” each time.

B7: 8H7 (antibody, V domains shown)
VH: QVQLQQPGAEIVKPGASVRLSCKASGYSFTSYWIHWVKQRPGQGLEWIGEIDPSVSNSNYNQKFKGKATLTADKSSSTAYMQLSGLTSEDSAVYFCVRLGVMVYGSSPFWFAYWGQGTLVTVSA
VL: DIVMTQSQKFMSTSVGDRVSITCKASQFVSDAVAWYQQKPGQSPKLLICSASYRYTGVPDRFTGSGSGTDFTFTISSVRTEDLAVYYCQQHYIVPYTFGGGTTLEIE
notes: as for B2
On to B7, for which the binding result (in assay [1]; with rabbit KLB (+N-ter FLAG)) was “binds” throughout.

B8: 21H3 (antibody, V domains shown)
VH: QVQLQQPGAEIVKPGASVRLSCKASGYSFTSYWIHWVKQRPGQGLEWIGEIDPSVSNSNYNQKFKGKATLTADKSSSTAYMQLSGLTSEDSAVYFCVRLGVMVYGSSPFWFAYWGQGTLVTVSA
VL: DIVMTQSQKFMSTSVGDRVSITCKASQFVSDAVAWYQQKPGQSPKLLICSASYRYTGVPDRFTGSGSGTDFTFTISSVRTEDLAVYYCQQHYIVPYTFGGGTTLEIE
notes: as for B2
On to B8, for which the binding result (in assay [1]; in the assay with rabbit KLB (+N-ter FLAG)) was “binds” in each case.

B9: 5F8 (antibody, V domains shown)
VH: EVQLQQSGTELVRPGASVKLSCTSSDFNIKDTYIHWVKQRPEQGLDWLGRIDPANGNTKYDPKFQGKAAMTSDTSSNTAYLRLSSLTSEDTAVYYCASSGNYGAMDYWGQGTSVTVSS
VL: ESVLTQSPALMSASLGEKVTMTCRASSSVNHMYWYQQKSDASPKLWIYYTSTLAPGVPARFSGSGSGNSYSLTISSMEGEDAATYYCQQFTISPSMYTFGGGTKLEIK
notes: as for B2
On to B9, for which the binding result in the assay with mouse KLB is given as “no binding”; in assay [1], “binds”; with rabbit KLB (+N-ter FLAG), “binds”.

B10: 12A11 (antibody, V domains shown)
VH: EVKFLESGGGLVQPGGSLRLSCAVSGIDFSRYWMSWVRQAPGKGLEWIGEISPDSSTINYTPSLKDKFVISRDNAKNTLYLQMSKVRSADTALYYCARPSPALDYWGQGTLVTVSA
VL: DIVMTQSPATLSVTPGDRVSLSCRASQSISDYVYWYQQKSHESPRLLIIYASQSISGIPSRFSGSGSGSDFTLSINSVEPEDVGVYYCQNGHNFPYTFGGGTKLEIK
notes: murine hybridoma-derived anti-KLB antibody; also called KLBmAb2
Take B10: the binding result (in assay [1]; with rabbit KLB (+N-ter FLAG)) was “binds” each time.
